Each block holds one binder with its values, some of them ahead of it.
Columns and labels:
[1] = target: T1, human 4-1BB expressed with a C-terminal murine Fc tag (human, UniProt Q07011 24-186); assay: SPR Biacore 4000, h4-1BB.mFc captured by anti-mouse Fc, antibody as analyte, 25 C
T1 construct: also called h4-1BB.mFc; REGN3585; not shown: C-terminal murine Fc tag
Experimental: Equilibrium dissociation constants (KD values) for human 4-1BB expressed with a C-terminal murine Fc tag (h4-1BB.mFc, REGN3585) binding to purified anti-CD38×4-1BB 1+2 antibodies were determined using a real-time surface plasmon resonance biosensor using a Biacore 4000 instrument. […] All Biacore binding studies were performed in a buffer composed of 0.01M HEPES pH 7.4, 0.15M NaCl, 3 mM EDTA, 0.05% v/v Surfactant P20 (HBS-EP running buffer). Different concentrations of CD38×4-1BB 1+2 constructs prepared in HBS-EP running buffer (ranging from 100 to 6.25 nM in 4-fold serial dilutions) were injected over the h4-1BB.mFc (REGN3585) captured surface at a flow rate of 30 μL/minute. Antibody-reagent association was monitored for 5 minutes while dissociation in HBS-EP running buffer was monitored for 10 minutes. At the end of each cycle, the h4-1BB.mFc capture surface was regenerated using a 40 sec injection of 10 mM glycine, pH 1.5. All binding kinetics experiments were performed at 25° C.
(§1) Kinetic association (kₐ) and dissociation (kd) rate constants were determined by fitting the real-time sensorgrams to a 1:1 binding model using Cytiva Insight curve fitting software. Binding dissociation equilibrium constants (KD) and dissociative half-lives (t/2) were calculated from the kinetic rate constants as: […]

[2] = target: T2, human 4-1BB expressed with a C-terminal myc-myc-hexahistidine tag (human, UniProt Q07011 24-186); assay: SPR Biacore 8k, antibody captured by anti-human Fc, h4-1BB.mmH as analyte, 25 C
T2 construct: also called h4-1BB.mmH; REGN3584; not shown: C-terminal myc-myc-hexahistidine tag
T2 sequence (Q07011 24-186 limits assumed): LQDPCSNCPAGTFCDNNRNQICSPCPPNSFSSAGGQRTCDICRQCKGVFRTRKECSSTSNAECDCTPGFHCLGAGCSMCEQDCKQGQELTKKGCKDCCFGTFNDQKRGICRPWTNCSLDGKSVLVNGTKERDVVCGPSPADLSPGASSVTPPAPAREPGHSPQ
Experimental: (§2) Equilibrium dissociation constants (KD values) for human 4-1BB expressed with a C-terminal myc-myc-hexahistidine tag (h4-1BB.mmH, REGN3584) or human 4-1BB expressed with a C-terminal murine Fc tag (h4-1BB.mFc, REGN3585) binding to purified anti-CD38×4-1BB 1+2 antibodies were determined using a real-time surface plasmon resonance biosensor using a Biacore 8k instrument. The CM5 Biacore sensor surface was derivatized by amine coupling with a monoclonal mouse anti-human Fc antibody (REGN2567). All Biacore binding studies were performed in a buffer composed of 0.01M HEPES pH 7.4, 0.15M NaCl, 3 mM EDTA, 0.05% v/v Surfactant P20 (HBS-EP running buffer). […] Antibody-reagent association was monitored for 5 minutes while dissociation in HBS-EP running buffer was monitored for 10 minutes. At the end of each cycle, the anti-CD38×4-1BB 1+2 antibody capture surface was regenerated using a 10 second injection of 20 mM phosphoric acid. All binding kinetics experiments were performed at 25° C.
as §1

[3] = target: T1, human 4-1BB expressed with a C-terminal …; assay: SPR Biacore 8k, antibody captured by anti-human Fc, h4-1BB.mFc as analyte, 25 C
Experimental: as §2, §1

[4] = target: T3, human 4-1BB on cells (human, UniProt Q07011 24-255); assay: cell-based or functional assay
T3 sequence (Q07011 24-255): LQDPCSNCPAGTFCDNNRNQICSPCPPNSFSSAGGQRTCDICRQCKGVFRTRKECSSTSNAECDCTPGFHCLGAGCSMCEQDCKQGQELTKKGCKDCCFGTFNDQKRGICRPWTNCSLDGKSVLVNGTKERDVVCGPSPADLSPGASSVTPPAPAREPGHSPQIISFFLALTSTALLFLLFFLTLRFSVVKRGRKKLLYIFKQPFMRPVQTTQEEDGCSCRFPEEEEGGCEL

[5] = target: T3, human 4-1BB on cells; assay: cell-based or functional assay; remark: listed apart in the source
[6] = target: T3, human 4-1BB on cells; assay: cell-based or functional assay; remark: listed apart in the source

T1 sequence (Q07011 24-186 limits assumed): as the sequence (Q07011 24-186 limits assumed) above

100 nM Ab Bind (RU) [1]: 234 RU
Kd [1]: 0.716 nM
koff [1]: 0.000308 s⁻¹
kon [1]: 430000 M⁻¹ s⁻¹
t½ [1]: 37.6 min
100 nM h4-1BB.mmH Bind (RU) [2]: 107 RU
Kd [2]: 13.8 nM
koff [2]: 0.00494 s⁻¹
kon [2]: 358000 M⁻¹ s⁻¹
t½ [2]: 2.3 min
100 nM h4-1BB.mFc Bind (RU) [3]: 283 RU
Kd [3]: 0.86 nM
koff [3]: 0.000177 s⁻¹
kon [3]: 206000 M⁻¹ s⁻¹
t½ [3]: 65.3 min
EC50 of luciferase activity, HEK293/NFkB-Luc/h4-1BB reporter + OPM2 [4]: 0.0219 nM
MAX luciferase activity, HEK293/NFkB-Luc/h4-1BB reporter + HEK293/CD20 [4]: 1e+06 RLU
MAX luciferase activity, HEK293/NFkB-Luc/h4-1BB reporter + HEK293/CD20/CD38 [4]: 2.4e+06 RLU
MAX luciferase activity, HEK293/NFkB-Luc/h4-1BB reporter + MOLP-8 [4]: 2.2e+06 RLU
MAX luciferase activity, HEK293/NFkB-Luc/h4-1BB reporter + OPM2 [4]: 2.1e+06 RLU
EC50 of IFNγ release, T cells + HEK293/CD20/CD38 + REGN2281 [5]: 0.0526 nM
EC50 of IFNγ release, T cells + MOLP-8 + REGN5458 [5]: 0.0725 nM
EC50 of IFNγ release, T cells + NALM-6 [5]: 0.0419 nM
MAX IFNγ release, T cells + HEK293/CD20 + REGN2281 [5]: 1570 pg/mL
MAX IFNγ release, T cells + HEK293/CD20/CD38 + REGN2281 [5]: 5270 pg/mL
MAX IFNγ release, T cells + MOLP-8 + IsoC [5]: 161 pg/mL
MAX IFNγ release, T cells + MOLP-8 + REGN5458 [5]: 3410 pg/mL
MAX IFNγ release, T cells + NALM-6 [5]: 658 pg/mL
EC50 of IL-2 release, T cells + HEK293/CD20/CD38 + REGN2281 [6]: 0.0607 nM
EC50 of IL-2 release, T cells + MOLP-8 + REGN5458 [6]: 0.133 nM
EC50 of IL-2 release, T cells + NALM-6 [6]: 0.0717 nM
MAX IL-2 release, T cells + HEK293/CD20 + REGN2281 [6]: 52 pg/mL
MAX IL-2 release, T cells + HEK293/CD20/CD38 + REGN2281 [6]: 912 pg/mL
MAX IL-2 release, T cells + MOLP-8 + IsoC [6]: 96 pg/mL
MAX IL-2 release, T cells + MOLP-8 + REGN5458 [6]: 79 pg/mL
MAX IL-2 release, T cells + NALM-6 [6]: 205 pg/mL
B1: REGN9682 (bispecific antibody, human IgG4 S228P, kappa)
heavy 1: EVQLVESGGGLVQPGRSLRLSCGASGFTFDDYVMHWVRQIPGKGLEWVAGISWNSGSIGYADSVKGRFTISRDNAKNSLYLQMNSLRAEDTALYFCAKDHIDPYSSSLYYYYGMDVWGQGTTVTVSSASTKGPSVFPLAPCSRSTSESTAALGCLVKDYFPEPVTVSWNSGALTSGVHTFPAVLQSSGLYSLSSVVTVPSSSLGTKTYTCNVDHKPSNTKVDKRVGGGGSGGGGSGGGGSEVQLVESGGGLVQPGRSLRLSCGASGFTFDDYVMHWVRQIPGKGLEWVAGISWNSGSIGYADSVKGRFTISRDNAKNSLYLQMNSLRAEDTALYFCAKDHIDPYSSSLYYYYGMDVWGQGTTVTVSSASTKGPSVFPLAPCSRSTSESTAALGCLVKDYFPEPVTVSWNSGALTSGVHTFPAVLQSSGLYSLSSVVTVPSSSLGTKTYTCNVDHKPSNTKVDKRVESKYGPPCPPCPAPPVAGPSVFLFPPKPKDTLMISRTPEVTCVVVDVSQEDPEVQFNWYVDGVEVHNAKTKPREEQFNSTYRVVSVLTVLHQDWLNGKEYKCKVSNKGLPSSIEKTISKAKGQPREPQVYTLPPSQEEMTKNQVSLTCLVKGFYPSDIAVEWESNGQPENNYKTTPPVLDSDGSFFLYSRLTVDKSRWQEGNVFSCSVMHEALHNRFTQKSLSLSPGK
heavy 2: EVQLVESGGGLVQPGRSLRLSCAASGFTFDDYAMHWVRQAPGKGLEWVSGISWKSDNIGYADSVKGRFTISRDNAKNSLYLQMNSLRAEDTALYYCAKALGGWKFDYYYGMDVWGQGTTVTVSSASTKGPSVFPLAPCSRSTSESTAALGCLVKDYFPEPVTVSWNSGALTSGVHTFPAVLQSSGLYSLSSVVTVPSSSLGTKTYTCNVDHKPSNTKVDKRVESKYGPPCPPCPAPPVAGPSVFLFPPKPKDTLMISRTPEVTCVVVDVSQEDPEVQFNWYVDGVEVHNAKTKPREEQFNSTYRVVSVLTVLHQDWLNGKEYKCKVSNKGLPSSIEKTISKAKGQPREPQVYTLPPSQEEMTKNQVSLTCLVKGFYPSDIAVEWESNGQPENNYKTTPPVLDSDGSFFLYSRLTVDKSRWQEGNVFSCSVMHEALHNHYTQKSLSLSLGK
light: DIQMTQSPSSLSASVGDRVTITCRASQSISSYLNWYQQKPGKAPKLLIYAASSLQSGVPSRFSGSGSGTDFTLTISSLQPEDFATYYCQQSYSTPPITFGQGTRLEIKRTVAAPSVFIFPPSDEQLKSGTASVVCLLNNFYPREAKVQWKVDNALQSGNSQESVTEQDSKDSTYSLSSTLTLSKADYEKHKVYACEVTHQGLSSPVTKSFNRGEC
notes: 1+2 format, hIgG4P-PVA; The linker between the two 4-1BB Fabs is (G4S)3; also called CD38x4-1BB (1 + 2), (G4S)3; 26812P2 x 35333P2 (IN) + 35333P2 (OUT)

100 nM Ab Bind (RU) [1]: 232 RU
Kd [1]: 0.717 nM
koff [1]: 0.000337 s⁻¹
kon [1]: 470000 M⁻¹ s⁻¹
t½ [1]: 34.3 min
100 nM h4-1BB.mmH Bind (RU) [2]: 101 RU
Kd [2]: 14.8 nM
koff [2]: 0.00474 s⁻¹
kon [2]: 319000 M⁻¹ s⁻¹
t½ [2]: 2.4 min
100 nM h4-1BB.mFc Bind (RU) [3]: 267 RU
Kd [3]: 1.2 nM
koff [3]: 0.000205 s⁻¹
kon [3]: 171000 M⁻¹ s⁻¹
t½ [3]: 56.3 min
EC50 of luciferase activity, HEK293/NFkB-Luc/h4-1BB reporter + OPM2 [4]: 0.018 nM
MAX luciferase activity, HEK293/NFkB-Luc/h4-1BB reporter + HEK293/CD20 [4]: 1.1e+06 RLU
MAX luciferase activity, HEK293/NFkB-Luc/h4-1BB reporter + HEK293/CD20/CD38 [4]: 2.4e+06 RLU
MAX luciferase activity, HEK293/NFkB-Luc/h4-1BB reporter + MOLP-8 [4]: 2.2e+06 RLU
MAX luciferase activity, HEK293/NFkB-Luc/h4-1BB reporter + OPM2 [4]: 2.1e+06 RLU
EC50 of IFNγ release, T cells + HEK293/CD20/CD38 + REGN2281 [5]: 0.0874 nM
EC50 of IFNγ release, T cells + MOLP-8 + REGN5458 [5]: 0.102 nM
MAX IFNγ release, T cells + HEK293/CD20 + REGN2281 [5]: 1450 pg/mL
MAX IFNγ release, T cells + HEK293/CD20/CD38 + REGN2281 [5]: 6820 pg/mL
MAX IFNγ release, T cells + MOLP-8 + IsoC [5]: 85 pg/mL
MAX IFNγ release, T cells + MOLP-8 + REGN5458 [5]: 3890 pg/mL
MAX IFNγ release, T cells + NALM-6 [5]: 651 pg/mL
EC50 of IL-2 release, T cells + HEK293/CD20/CD38 + REGN2281 [6]: 0.0453 nM
EC50 of IL-2 release, T cells + MOLP-8 + IsoC [6]: 0.0361 nM
EC50 of IL-2 release, T cells + MOLP-8 + REGN5458 [6]: 0.0833 nM
EC50 of IL-2 release, T cells + NALM-6 [6]: 0.0723 nM
MAX IL-2 release, T cells + HEK293/CD20 + REGN2281 [6]: 57 pg/mL
MAX IL-2 release, T cells + HEK293/CD20/CD38 + REGN2281 [6]: 709 pg/mL
MAX IL-2 release, T cells + MOLP-8 + IsoC [6]: 90 pg/mL
MAX IL-2 release, T cells + MOLP-8 + REGN5458 [6]: 62 pg/mL
MAX IL-2 release, T cells + NALM-6 [6]: 169 pg/mL
B2: REGN9686 (bispecific antibody, human IgG4 S228P, kappa)
heavy 1: EVQLVESGGGLVQPGRSLRLSCGASGFTFDDYVMHWVRQIPGKGLEWVAGISWNSGSIGYADSVKGRFTISRDNAKNSLYLQMNSLRAEDTALYFCAKDHIDPYSSSLYYYYGMDVWGQGTTVTVSSASTKGPSVFPLAPCSRSTSESTAALGCLVKDYFPEPVTVSWNSGALTSGVHTFPAVLQSSGLYSLSSVVTVPSSSLGTKTYTCNVDHKPSNTKVDKRVESKYGPPGGGGSGGGGSEVQLVESGGGLVQPGRSLRLSCGASGFTFDDYVMHWVRQIPGKGLEWVAGISWNSGSIGYADSVKGRFTISRDNAKNSLYLQMNSLRAEDTALYFCAKDHIDPYSSSLYYYYGMDVWGQGTTVTVSSASTKGPSVFPLAPCSRSTSESTAALGCLVKDYFPEPVTVSWNSGALTSGVHTFPAVLQSSGLYSLSSVVTVPSSSLGTKTYTCNVDHKPSNTKVDKRVESKYGPPCPPCPAPPVAGPSVFLFPPKPKDTLMISRTPEVTCVVVDVSQEDPEVQFNWYVDGVEVHNAKTKPREEQFNSTYRVVSVLTVLHQDWLNGKEYKCKVSNKGLPSSIEKTISKAKGQPREPQVYTLPPSQEEMTKNQVSLTCLVKGFYPSDIAVEWESNGQPENNYKTTPPVLDSDGSFFLYSRLTVDKSRWQEGNVFSCSVMHEALHNRFTQKSLSLSPGK
heavy 2: B1 heavy 2
light: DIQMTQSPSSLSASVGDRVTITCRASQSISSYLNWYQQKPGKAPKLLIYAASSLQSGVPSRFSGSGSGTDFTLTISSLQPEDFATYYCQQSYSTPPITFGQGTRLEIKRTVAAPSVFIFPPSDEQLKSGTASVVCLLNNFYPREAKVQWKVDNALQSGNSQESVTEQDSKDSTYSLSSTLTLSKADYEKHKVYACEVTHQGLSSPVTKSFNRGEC
notes: 1+2 format, hIgG4P-PVA; The linker between the two 4-1BB Fabs is (G4S)2; also called CD38x4-1BB (1 + 2), (G4S)2; 26812P2 x 35333P2 (IN) + 35333P2 (OUT)
